Assay results published in the supplement of paper PMC10065799, “High-throughput profiling of sequence recognition by tyrosine kinases and SH2 domains using bacterial peptide display” (eLife, 2023).

Legend:
[1] = target: FGFR3 (UniProt P22607); assay: phosphorylation enrichment, bacterial display (enrichment ratio); higher = better substrate or ligand; peptides without Tyr show the background
[2] = test system: AncSZ; assay: as above
[3] = target: EPHB2 (UniProt P29323); assay: as above
[4] = target: FGFR1 (UniProt P11362); assay: as above
[5] = target: Fyn (UniProt P06241); assay: as above
Sequence of Fyn (P06241 whole entry, looked up): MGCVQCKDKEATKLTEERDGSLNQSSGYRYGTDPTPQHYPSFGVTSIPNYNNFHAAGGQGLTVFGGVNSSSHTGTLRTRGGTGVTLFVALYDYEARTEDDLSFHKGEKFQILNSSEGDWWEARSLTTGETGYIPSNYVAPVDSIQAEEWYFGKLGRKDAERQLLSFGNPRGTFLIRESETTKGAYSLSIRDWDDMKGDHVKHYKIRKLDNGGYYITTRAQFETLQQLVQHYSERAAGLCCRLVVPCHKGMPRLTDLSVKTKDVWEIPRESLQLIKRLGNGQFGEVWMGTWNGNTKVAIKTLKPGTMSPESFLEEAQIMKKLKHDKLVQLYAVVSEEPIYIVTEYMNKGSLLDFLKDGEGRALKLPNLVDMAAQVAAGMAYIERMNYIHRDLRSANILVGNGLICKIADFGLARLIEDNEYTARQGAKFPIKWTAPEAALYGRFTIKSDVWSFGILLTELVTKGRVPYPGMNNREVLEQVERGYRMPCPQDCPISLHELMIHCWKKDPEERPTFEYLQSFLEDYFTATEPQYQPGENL

[6] = target: Fes (UniProt P07332); assay: as above
Sequence of Fes (P07332 whole entry, looked up): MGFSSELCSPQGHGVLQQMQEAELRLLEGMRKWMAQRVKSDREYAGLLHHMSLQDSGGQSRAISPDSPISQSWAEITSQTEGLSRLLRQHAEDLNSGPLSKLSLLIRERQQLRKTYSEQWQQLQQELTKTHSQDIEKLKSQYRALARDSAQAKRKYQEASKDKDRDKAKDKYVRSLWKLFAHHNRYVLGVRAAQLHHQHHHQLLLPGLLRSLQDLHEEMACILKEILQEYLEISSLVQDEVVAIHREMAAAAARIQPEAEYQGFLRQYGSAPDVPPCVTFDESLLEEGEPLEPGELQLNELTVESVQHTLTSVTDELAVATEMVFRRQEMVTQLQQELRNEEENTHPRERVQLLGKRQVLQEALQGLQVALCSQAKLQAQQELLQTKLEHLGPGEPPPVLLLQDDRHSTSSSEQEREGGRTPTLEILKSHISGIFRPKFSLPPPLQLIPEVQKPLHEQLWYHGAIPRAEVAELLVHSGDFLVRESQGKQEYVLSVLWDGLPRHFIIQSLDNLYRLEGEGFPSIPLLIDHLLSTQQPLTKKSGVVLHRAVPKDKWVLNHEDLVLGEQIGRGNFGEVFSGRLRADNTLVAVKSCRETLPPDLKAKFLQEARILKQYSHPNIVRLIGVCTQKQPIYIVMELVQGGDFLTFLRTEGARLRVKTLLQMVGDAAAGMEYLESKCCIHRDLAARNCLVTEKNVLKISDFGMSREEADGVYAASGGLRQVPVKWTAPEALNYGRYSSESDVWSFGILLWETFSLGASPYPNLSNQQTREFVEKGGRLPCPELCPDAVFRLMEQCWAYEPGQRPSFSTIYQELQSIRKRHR

[7] = test system: c-Src; assay: as above
[8] = target: MERTK (UniProt Q12866); assay: as above
Sequence of MERTK (Q12866 whole entry, looked up): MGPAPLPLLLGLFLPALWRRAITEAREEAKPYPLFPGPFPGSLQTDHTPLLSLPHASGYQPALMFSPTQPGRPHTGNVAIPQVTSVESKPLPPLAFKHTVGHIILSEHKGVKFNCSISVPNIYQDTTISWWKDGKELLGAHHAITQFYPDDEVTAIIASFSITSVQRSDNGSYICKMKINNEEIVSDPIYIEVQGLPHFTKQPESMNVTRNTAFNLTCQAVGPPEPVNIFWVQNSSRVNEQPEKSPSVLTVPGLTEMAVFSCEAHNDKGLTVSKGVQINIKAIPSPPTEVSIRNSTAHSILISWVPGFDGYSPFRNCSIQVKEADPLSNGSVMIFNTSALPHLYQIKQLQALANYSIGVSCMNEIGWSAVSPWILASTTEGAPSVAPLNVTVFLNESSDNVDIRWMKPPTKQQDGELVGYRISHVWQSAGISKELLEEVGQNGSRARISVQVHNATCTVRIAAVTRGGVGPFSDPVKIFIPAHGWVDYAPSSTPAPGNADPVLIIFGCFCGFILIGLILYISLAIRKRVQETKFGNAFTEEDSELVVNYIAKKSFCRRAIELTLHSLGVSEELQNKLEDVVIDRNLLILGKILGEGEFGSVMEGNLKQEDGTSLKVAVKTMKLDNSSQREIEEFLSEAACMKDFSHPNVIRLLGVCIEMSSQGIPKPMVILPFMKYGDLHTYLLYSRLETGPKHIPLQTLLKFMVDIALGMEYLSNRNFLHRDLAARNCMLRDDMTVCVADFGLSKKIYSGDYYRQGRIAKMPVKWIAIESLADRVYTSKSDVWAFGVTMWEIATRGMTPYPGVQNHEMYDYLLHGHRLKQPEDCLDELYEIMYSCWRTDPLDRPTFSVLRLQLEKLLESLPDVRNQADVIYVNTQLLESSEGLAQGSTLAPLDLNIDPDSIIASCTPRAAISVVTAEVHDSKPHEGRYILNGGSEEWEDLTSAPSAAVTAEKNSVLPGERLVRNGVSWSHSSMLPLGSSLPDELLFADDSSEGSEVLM

[9] = target: Jak2 (UniProt O60674); assay: as above
Sequence of Jak2 (O60674 whole entry, looked up): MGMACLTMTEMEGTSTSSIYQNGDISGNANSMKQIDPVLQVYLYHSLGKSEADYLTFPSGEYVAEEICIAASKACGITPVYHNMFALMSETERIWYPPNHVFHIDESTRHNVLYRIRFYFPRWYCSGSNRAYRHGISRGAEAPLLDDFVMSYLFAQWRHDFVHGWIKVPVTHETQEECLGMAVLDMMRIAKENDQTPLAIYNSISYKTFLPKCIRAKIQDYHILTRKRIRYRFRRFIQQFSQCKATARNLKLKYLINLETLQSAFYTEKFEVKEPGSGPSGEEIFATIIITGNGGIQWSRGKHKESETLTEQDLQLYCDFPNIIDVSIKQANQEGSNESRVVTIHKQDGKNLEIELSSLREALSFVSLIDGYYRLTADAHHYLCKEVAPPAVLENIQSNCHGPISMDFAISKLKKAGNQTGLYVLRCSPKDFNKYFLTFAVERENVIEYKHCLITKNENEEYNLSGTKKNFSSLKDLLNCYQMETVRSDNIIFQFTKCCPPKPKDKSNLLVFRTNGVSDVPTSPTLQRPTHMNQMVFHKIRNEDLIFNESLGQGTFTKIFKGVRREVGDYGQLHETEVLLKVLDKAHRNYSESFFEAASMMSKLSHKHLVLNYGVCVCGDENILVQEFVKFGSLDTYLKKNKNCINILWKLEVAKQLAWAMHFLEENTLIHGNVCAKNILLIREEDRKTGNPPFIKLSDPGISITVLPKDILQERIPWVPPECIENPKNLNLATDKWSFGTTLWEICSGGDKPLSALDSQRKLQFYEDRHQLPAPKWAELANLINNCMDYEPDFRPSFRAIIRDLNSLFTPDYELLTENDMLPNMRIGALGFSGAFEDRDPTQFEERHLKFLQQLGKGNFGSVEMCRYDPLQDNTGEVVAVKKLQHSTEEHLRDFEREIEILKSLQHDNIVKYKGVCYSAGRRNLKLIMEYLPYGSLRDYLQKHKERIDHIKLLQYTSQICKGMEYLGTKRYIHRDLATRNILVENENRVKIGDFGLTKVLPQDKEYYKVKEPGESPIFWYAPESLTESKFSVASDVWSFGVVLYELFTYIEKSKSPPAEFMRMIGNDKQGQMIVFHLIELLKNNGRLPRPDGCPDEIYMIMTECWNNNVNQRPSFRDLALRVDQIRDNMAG

[10] = test system: c-Abl (mouse); assay: as above
[11] = target: Hck (UniProt P08631); assay: as above
Sequence of Hck (P08631 whole entry, looked up): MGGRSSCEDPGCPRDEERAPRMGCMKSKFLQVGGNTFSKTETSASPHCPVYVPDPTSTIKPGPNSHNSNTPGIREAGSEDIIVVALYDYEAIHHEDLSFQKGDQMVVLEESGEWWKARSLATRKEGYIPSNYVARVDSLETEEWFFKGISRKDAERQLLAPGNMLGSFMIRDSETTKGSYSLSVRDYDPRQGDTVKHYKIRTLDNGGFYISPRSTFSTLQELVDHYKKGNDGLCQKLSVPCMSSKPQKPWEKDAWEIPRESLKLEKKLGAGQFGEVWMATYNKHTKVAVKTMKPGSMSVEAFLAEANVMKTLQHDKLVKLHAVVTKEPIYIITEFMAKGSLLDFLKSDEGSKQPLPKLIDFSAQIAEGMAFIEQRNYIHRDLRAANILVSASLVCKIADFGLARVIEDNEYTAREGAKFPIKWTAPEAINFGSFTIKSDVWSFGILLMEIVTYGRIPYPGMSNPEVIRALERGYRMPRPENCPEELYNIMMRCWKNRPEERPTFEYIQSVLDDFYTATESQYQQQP

[12] = test system: Fer (mouse); assay: as above
[13] = target: EPHB1 (UniProt P54762); assay: as above
[14] = target: SHP2-C SH2; assay: SH2 binding enrichment of the phosphorylated peptide, bacterial display (enrichment ratio); higher = better substrate or ligand; peptides without Tyr show the background
[15] = target: c-Src SH2; assay: as above
[16] = target: Grb2 SH2 (UniProt P62993); assay: as above
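For SH2 binding enrichment of the phosphorylated peptide, bacterial display in this document: peptide library displayed on the E. coli surface as eCPX fusions, selected cells deep-sequenced, score is each peptide's frequency after selection divided by its frequency in the input.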
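For phosphorylation enrichment, bacterial display in this document: 11-residue human phosphosite peptides and single-mutation variants displayed on the E. coli surface, counted by deep sequencing, each peptide's frequency after selection divided by its frequency in the unselected input library; frequency after pTyr selection over input frequency; kinase dosed for 20-30% of maximal phosphorylation in three min.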

Sequence of FGFR3 (P22607 whole entry, looked up): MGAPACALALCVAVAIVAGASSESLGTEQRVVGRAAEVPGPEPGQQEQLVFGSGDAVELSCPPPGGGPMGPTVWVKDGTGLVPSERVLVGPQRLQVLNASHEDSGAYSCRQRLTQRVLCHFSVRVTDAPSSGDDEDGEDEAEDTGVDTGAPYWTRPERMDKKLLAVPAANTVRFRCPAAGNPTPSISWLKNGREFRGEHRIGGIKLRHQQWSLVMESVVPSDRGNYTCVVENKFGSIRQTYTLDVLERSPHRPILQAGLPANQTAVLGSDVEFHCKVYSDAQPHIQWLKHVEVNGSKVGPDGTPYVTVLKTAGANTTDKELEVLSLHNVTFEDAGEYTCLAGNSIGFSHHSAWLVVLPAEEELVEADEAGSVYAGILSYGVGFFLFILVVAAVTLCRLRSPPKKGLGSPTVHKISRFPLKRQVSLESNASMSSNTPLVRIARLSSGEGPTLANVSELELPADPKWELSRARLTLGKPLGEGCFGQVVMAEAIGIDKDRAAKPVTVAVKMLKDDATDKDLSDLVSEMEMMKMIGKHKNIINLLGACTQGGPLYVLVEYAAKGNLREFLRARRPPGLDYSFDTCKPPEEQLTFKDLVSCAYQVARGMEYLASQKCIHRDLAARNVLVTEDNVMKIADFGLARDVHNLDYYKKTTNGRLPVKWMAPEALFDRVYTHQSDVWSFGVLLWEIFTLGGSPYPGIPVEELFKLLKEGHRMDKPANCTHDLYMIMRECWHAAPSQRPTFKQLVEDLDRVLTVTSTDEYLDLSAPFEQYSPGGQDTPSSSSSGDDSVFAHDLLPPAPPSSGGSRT

Row | Sequence | SH2 binding enrichment [14] | SH2 binding enrichment [15] | SH2 binding enrichment [16] | phosphorylation enrichment [1] | phosphorylation enrichment [2] | phosphorylation enrichment [3] | phosphorylation enrichment [4] | phosphorylation enrichment [5] | phosphorylation enrichment [6] | phosphorylation enrichment [7] | phosphorylation enrichment [8] | phosphorylation enrichment [9] | phosphorylation enrichment [10] | phosphorylation enrichment [11] | phosphorylation enrichment [12] | phosphorylation enrichment [13]
1 | DEEDTYTMPST [PTK2_Y407] | 0.563 | 0.469 | 0.869 | 0.776 | 3.8 | 0.627 | 0.568 | 3.77 | 1.29 | 2.94 | 0.657 | 1.25 | 1.12 | 1.83 | 0.691 | 0.528
2 | DEYLEHRRIVG [FAM221A_Y20_Y20H] | 0.611 | 0.484 | 0.918 | 0.611 | 0.764 | 0.679 | 0.6 | 0.399 | 0.883 | 0.347 | 0.38 | 0.526 | 0.434 | 0.489 | 0.506 | 1.95
3 | DFNPNYCFAGK [ALK_Y1096_YF] | 0.625 | 0.533 | 0.792 | 0.887 | 1.67 | 0.989 | 0.742 | 0.549 | 1.28 | 0.684 | 1.04 | 1.21 | 0.921 | 0.444 | 0.742 | 1.72
4 | DFTEAYNPKIK [CLK1_Y305_YF] | 1.11 | 0.533 | 0.947 | 0.649 | 0.874 | 0.572 | 0.464 | 0.453 | 1.11 | 0.571 | 0.501 | 0.988 | 0.893 | 0.505 | 0.466 | 0.509
5 | DGPVNYEEFVQ [CALM2_Y139_Q136P] | 0.656 | 0.418 | 0.848 | 0.725 | 1.17 | 1.08 | 0.514 | 0.482 | 1.12 | 0.532 | 0.474 | 1.18 | 0.748 | 0.529 | 0.601 | 1.27
6 | DIMDLYNQPEL [IL36A_Y96_P101L] | 0.768 | 0.556 | 0.764 | 0.943 | 1.54 | 0.613 | 0.567 | 0.932 | 1.28 | 0.99 | 0.511 | 1.11 | 0.868 | 1.29 | 0.589 | 0.559
7 | DISEPYKVFRI [IRF8_Y107_YF] | 0.497 | 0.42 | 0.826 | 0.618 | 1.11 | 0.529 | 0.552 | 0.628 | 1.17 | 0.628 | 0.582 | 0.78 | 1 | 0.563 | 0.565 | 0.543
8 | DKHGQYLIGHG [EPHB4_Y581] | 0.565 | 0.485 | 0.905 | 0.576 | 0.652 | 0.376 | 0.482 | 0.449 | 0.645 | 0.436 | 0.378 | 0.599 | 0.525 | 0.475 | 0.465 | 0.397
9 | DKWFLYKMRDI [CPS1_Y879] | 0.661 | 0.373 | 0.838 | 0.77 | 1.14 | 0.57 | 0.466 | 0.444 | 1.36 | 0.403 | 0.311 | 1.32 | 0.963 | 0.469 | 0.505 | 0.671
10 | DLAGRYFALRS [CKB_Y173_K177R_YF] | 0.628 | 0.738 | 0.905 | 0.394 | 0.587 | 0.371 | 0.447 | 0.38 | 0.579 | 0.347 | 0.476 | 0.761 | 0.554 | 0.4 | 0.36 | 0.419
11 | DLREKYMDCGG [HAP1_Y440] | 0.596 | 0.668 | 0.938 | 0.726 | 0.919 | 0.625 | 0.507 | 0.499 | 1.1 | 0.389 | 0.442 | 0.913 | 0.738 | 0.55 | 0.586 | 0.716
12 | DLWEKYMDCGG [HAP1_Y440_R437W] | 0.617 | 0.55 | 0.768 | 0.854 | 1.44 | 0.775 | 0.6 | 0.509 | 1.42 | 0.436 | 0.458 | 1.12 | 0.738 | 0.596 | 0.578 | 0.976
13 | DMGAQYAAASP [ARID1B_Y483] | 0.647 | 0.63 | 0.67 | 0.584 | 0.647 | 0.552 | 0.48 | 0.411 | 0.71 | 0.504 | 0.434 | 0.653 | 0.652 | 0.462 | 0.652 | 0.486
14 | DNQYAYLKAII [HNF4A_Y288_E285Q] | 0.826 | 0.531 | 0.769 | 1.91 | 1.19 | 0.549 | 2.72 | 0.456 | 1.09 | 0.551 | 1.58 | 1.11 | 3.75 | 1.4 | 0.64 | 0.562
15 | DPADRYLTEQC [CDKL5_Y286] | 0.747 | 0.507 | 0.918 | 0.731 | 0.986 | 0.558 | 0.458 | 0.478 | 1.12 | 0.523 | 0.446 | 0.947 | 0.713 | 0.506 | 0.53 | 0.485
16 | DPHECYAEVFD [ALB_Y394_K396E] | 0.954 | 1.23 | 1.1 | 1.25 | 1.32 | 0.807 | 1.2 | 0.753 | 1.55 | 0.775 | 0.626 | 1.01 | 0.817 | 0.944 | 0.617 | 0.871
17 | DRKRQCELLKL [KIF4B_Y684_Y684C] | 1.19 | 0.886 | 1.03 | 0.689 | 0.646 | 0.404 | 0.502 | 0.355 | 0.839 | 0.493 | 0.356 | 0.791 | 0.679 | 0.428 | 0.432 | 0.401

Continued, in another order:

Row | SH2 binding enrichment [14] | SH2 binding enrichment [15] | SH2 binding enrichment [16] | Sequence | phosphorylation enrichment [1] | phosphorylation enrichment [2] | phosphorylation enrichment [3] | phosphorylation enrichment [4] | phosphorylation enrichment [5] | phosphorylation enrichment [6] | phosphorylation enrichment [7] | phosphorylation enrichment [8] | phosphorylation enrichment [9] | phosphorylation enrichment [10] | phosphorylation enrichment [11] | phosphorylation enrichment [12] | phosphorylation enrichment [13]
18 | 0.588 | 0.38 | 0.777 | DDEVFYSPLSL [OTC_Y317_R320L] | 2.76 | 2 | 0.598 | 3.14 | 5.08 | 1.2 | 5.55 | 5.35 | 1.28 | 2.96 | 7.22 | 11.1 | 0.495
19 | 0.909 | 0.467 | 1.15 | DDPRRYQKFGF [OAS1_Y362_YF] | 0.528 | 0.593 | 0.425 | 0.438 | 0.502 | 0.667 | 0.321 | 0.475 | 0.674 | 0.418 | 0.398 | 0.414 | 0.376
20 | 0.554 | 0.655 | 0.889 | DELDKYSEALK [TPM1_Y60] | 0.59 | 1.19 | 0.577 | 0.451 | 0.443 | 1.03 | 0.422 | 0.395 | 0.977 | 0.676 | 0.489 | 0.472 | 0.469
21 | 1.03 | 0.554 | 0.856 | DEQKKYFNAMK [SCN5A_Y1494_E1489D_YF] | 0.474 | 0.68 | 0.428 | 0.592 | 0.394 | 0.883 | 0.548 | 0.448 | 0.952 | 0.815 | 0.419 | 0.437 | 0.374
22 | 0.582 | 2.03 | 0.853 | DFPGNYSGYDD [POLR1C_Y33] | 0.913 | 1.3 | 1.3 | 0.671 | 0.675 | 1.24 | 0.612 | 0.62 | 1.17 | 0.976 | 0.573 | 0.65 | 1.31
23 | 0.773 | 0.481 | 0.859 | DGQFVYKLTDF [TBK1_Y153_S151F] | 0.649 | 1.06 | 0.587 | 0.498 | 2.44 | 1.01 | 2.32 | 0.366 | 0.799 | 0.482 | 0.832 | 0.739 | 0.467
24 | 0.824 | 0.656 | 0.952 | DILASYLDKVR [KRT12_Y139_R135I] | 0.594 | 0.54 | 0.437 | 0.407 | 0.457 | 0.96 | 0.375 | 0.364 | 0.505 | 0.37 | 0.403 | 0.284 | 0.364
25 | 0.687 | 7.43 | 0.633 | DIRAQYDELAQ [KRT18_Y256_R261Q] | 0.753 | 1.08 | 0.574 | 0.49 | 0.576 | 1.06 | 0.473 | 0.582 | 0.864 | 0.614 | 0.574 | 0.45 | 0.546
26 | 0.546 | 0.516 | 0.613 | DNEAIYDICRR [TUBA4A_Y210] | 0.843 | 2.79 | 4.97 | 0.671 | 8.6 | 1.45 | 5.7 | 5.98 | 1.03 | 16.1 | 7.21 | 10.7 | 4.07
27 | 0.605 | 1.73 | 0.732 | DPMNTYARPAE [SGMS2_Y24_T21M] | 0.542 | 0.878 | 0.476 | 0.475 | 0.434 | 0.883 | 0.538 | 0.46 | 0.771 | 0.792 | 0.576 | 0.504 | 0.381
28 | 0.667 | 0.521 | 1.04 | DRLASYSDKVR [KRT10_Y160_L161S] | 0.419 | 0.578 | 0.365 | 0.454 | 0.41 | 0.553 | 0.445 | 0.43 | 0.503 | 0.42 | 0.387 | 0.322 | 0.366
29 | 0.912 | 0.471 | 0.756 | DRLAVYIDRVP [LMNA_Y45_R50P] | 0.731 | 1.09 | 0.719 | 0.451 | 0.429 | 1.09 | 0.329 | 0.331 | 0.911 | 0.654 | 0.468 | 0.437 | 0.682
